These results are taken from patent US20150183839A1, “SOYBEAN NODULATION REGULATORY PEPTIDES AND METHODS OF USE” (priority 2010, published 2015).

Entries after “also recorded” stand apart in the source; their conditions may differ.

One assay relates to soybean nodulation. Kind of assay: Over-expression of CLE genes in transgenic soybean hairy roots, nodule number (Example 1). It counts as in vivo, Glycine max. The settings on record: for nodulation (nodule number) on over-expression: vs vector-only control. Here is the method:
Soybean (Glycine max) lines used include the wild type Williams and its isogenic supernodulating nark mutant lines, nod4 and nod3-7 and the wild type Bragg and its isogenic hypernodulating nark mutant line, nts1116. Plants were grown in controlled glasshouse conditions (28° C./26° C. day/night, 16 hour day) in autoclaved pots and vermiculite where sterile growing conditions were required. Seeds requiring sterilisation were treated with 70% ethanol, 3% H2O2 for 1 min, followed by several rinses with water. Plants were watered as required with a modified nutrient solution lacking nitrogen (Herridge, 1982). Plants were inoculated with approximately OD600 0.01 Bradyrhizobium japonicum CB1809 or the corresponding NF mutant nodU grown in yeast-mannitol broth (YMB) at 28° for two days. For nitrate treatments, plants were watered with the indicated solutions of KNO3 every two days. For grafting experiments, reciprocal grafting was carried out 8 d after sowing and the graft unions were allowed to recover for 6 d before B. japonicum inoculation. Nodulation was scored three weeks after inoculation.
The full length CDS of CLE30, CLE60 and CLE80 was directionally cloned into the pKANNIBAL vector for expression of RNAi constructs (Wesley et al., 2001). Pfu polymerase (Stratagene, La Jolla, Calif.) was used to amplify PCR products incorporating restriction nuclease sites from cDNA samples shown to express the target gene. XhoI/EcoRI (for) and KpnI (rev) restriction sites were included in the primer sequences depending on internal restriction sites of each gene (full primer sequences are included in Table 2). Likely clones were confirmed by direct DNA sequencing and capillary separation. Constructs were sub-cloned into p15SRK2 or pM1KCK1 integration vectors (A. Kereszt, unpublished) as a NotI fragment before tri-parental mating to introduce the constructs into Agrobacterium rhizogenes K599. For transgenic root verification in the CLE60 over-expression experiments the DsRed reporter was subcloned into pM1KCK1 from pHairyRed, which is a modified version of pCAMBIA (M-H Lin, P M Gresshoff, B J Ferguson, unpublished). Tri-parental mating was used to introduce DsRed into A. rhizogenes K599 carrying the CLE60 construct. A. rhizogenes were subsequently used for the induction of transgenic soybean hairy roots according to Kereszt et al (2007).
To determine if the soybean CLE peptides regulate nodulation in a NARK-dependent manner, a reverse-genetics approach using a hairy-root transformation system was used. Over-expression of a systemic Q signal would be expected to inhibit nodulation, even in non-transformed roots. To test this, the complete CDS of CLE30, CLE60 or CLE80 was cloned into the pKANNIBAL vector for the expression of efficient RNAi constructs (Wesley et al., 2001). However, to generate over-expressing constructs, the antisense construct was omitted and the Pdk intron of pKANNIBAL was left intact. Previous studies have shown the inclusion of an intron can lead to higher and more consistent expression levels in transgenic plants (Norris et al., 1993).
Tri-parental mating was used to integrate the constructs into Agrobacterium rhizogenes K599 which induces the formation of transgenic hairy roots in soybean (Kereszt et al., 2007).

For another assay, the system named is G. max nodulation. Kind of assay: Overexpression of GmRIC1 in hairy roots of G. max, nodules counted (Example 2). In kind it is in vivo, Glycine max. The conditions noted are these: vs empty vector; for nodulation on overexpression: G. max WT (Williams). Here is the method: (§1) Transformation was done using the hairy root method. Agrobacterium rhizogenes containing a vector with the RIC1 gene (CLE30) and 35s promoter was injected into the stems of young plants. Once transgenic ‘hairy roots’ began growing from the stems the primary roots were removed and the plants with the transgenic roots were replanted and inoculated with the appropriate rhizobia strain.
(§2) All plants were grown in and in 30 well seed trays of grade 3 vermiculite. G. soja seeds were scarified and soaked in MQ H2O before planting. All plants were grown in growth cabinets under 16 h day and 8 h night conditions. P. vulgaris and G. max were grown at 28° C. G. soja were grown at 24° C. All plants were fertilised with a no nitrogen fertiliser and B&D solution (Broughton & Dilworth 1971).
(§3) A. rhizogenes K599 with either p15SRK2::GmRIC1 ox or p15SRK2 were grown on LB media (10 g/L Tryptone, 5 g/L Yeast extract, 10 g/L NaCl) for 2 days at 28° C. The bacteria were harvested by scraping it from the agar plate. The harvested bacteria were suspended in 3 mL MQ H2O, ensuring no lumps remained.
(§4) When all plants had unfolded cotyledons they were injected at the hypocotyl as close to the junction of the cotyledons as possible with the A. rhizogenes solutions (Kereszt et al, 2007; Estrada-Navarrete, 2006). Half of each of the WT and mutant lines received A. rhizogenes p15SRK2+GmRIC1 OX and the other half of the plants received A. rhizogenes p15SRK2; Totalling 4 treatment groups.
(§5) The infection technique was the same for all species using A. rhizogenes K599. To increase the likelihood of the K599 producing hairy roots, the A. rhizogenes was inoculated with 1 mL 200 μM acetosyringone one hour prior to harvesting the bacteria. After infection all seed trays were misted with H2O, covered and sealed to ensure high humidity.
Once root tips were visible at the point of infection, the primary roots of the plants were removed and the hairy roots were re-planted. Plants were left in the growth cabinets for one week to form an adequate root system. […] After 2-3 weeks plants were uprooted and the nodules counted.

The subject of another assay is G. soja nodulation. Kind of assay: Overexpression of GmRIC1 in hairy roots of G. soja, nodules counted. It counts as in vivo, Glycine soja. The settings on record: WT G. soja, vs vector only. How it is done: as §1, §2
A. rhizogenes K599 with either p15SRK2::GmRIC1 ox or p15SRK2 were grown on LB media (10 g/L Tryptone, 5 g/L Yeast extract, 10 g/L NaCl) for 2 days at 28° C. The bacteria were harvested by scraping it from the agar plate. The harvested bacteria were suspended in 3 mL MQ H2O, ensuring no lumps remained. […]
Once root tips were visible at the point of infection, the primary roots of the plants were removed and the hairy roots were re-planted. […] After 2-3 weeks plants were uprooted and the nodules counted.

Another assay deals with P. vulgaris nodulation. Kind of assay: Overexpression of GmRIC1 in hairy roots of P. vulgaris, nodules counted. It counts as in vivo, Phaseolus vulgaris. The conditions noted are these: vs vector only. Here is the method: as §1, §2, §3, §4, §5
Once root tips were visible at the point of infection, the primary roots of the plants were removed and the hairy roots were re-planted. Plants were left in the growth cabinets for one week to form an adequate root system. The plants were subsequently transferred to the glasshouse and re-potted into larger pots. After re-potting plants were also inoculated with the appropriate strain of rhizobia for that particular species. Plants were watered and fertilised with B&D solution (Broughton & Dilworth 1971). After 2-3 weeks plants were uprooted and the nodules counted.

B1: CLE30: Glycine max CLAVATA3/ESR-related (CLE) protein, SEQ ID NO:5; rhizobia induced CLE, over-expressed in transgenic hairy roots (protein)
chain: MANATMATRVSILIALIILSTFFMTLQASNLHGHPFIRENNIADSHHFLHKYLDDLSKHIHVQDADDAPHKDGNTHRLAPEGPDPHHNFATPPRN
modifications: Glycine max
notes: rhizobia induced CLE, over-expressed in transgenic hairy roots
As to B1, in the assay with soybean nodulation (Glycine max), the NARK/SUNN/HAR1 dependent inhibition entry is “yes”. In addition, the Systemic activity entry in the assay on soybean nodulation (Glycine max) was “yes”. Further, the “nodulation (nodule number) on over-expression” value in the assay on soybean nodulation (nod4 supernodulation nark mutant plants) was “no reduction in the nodule numbers; also recorded: complete lack of nodule inhibition; also recorded: nodule numbers were not reduced”; in the assay on soybean nodulation (wild-type (Williams) soybean, transgenic hairy roots) it was “completely abolishes soybean nodulation; also recorded: completely eliminated nodulation; also recorded: eliminated nodulation completely; also recorded: nodules were eliminated”. Also, the nodulation on overexpression entry with G. max nodulation is reported as “inhibits nodulation”; with G. max nodulation (listed as GmRIC1), “completely inhibits nodulation”; in the assay on G. soja nodulation it was “inhibits nodulation”; in the assay on G. soja nodulation (listed as GmRIC1), “completely inhibited nodulation; also recorded: complete inhibition of nodulation”; in the assay with P. vulgaris nodulation (P. vulgaris R32 supernodulation (AON) mutant) it was “no effect”; in the assay with P. vulgaris nodulation (P. vulgaris R32 supernodulation (AON) mutant, listed as GmRIC1), “no significant effect”. Further, the nodulation on overexpression result in the assay with P. vulgaris nodulation (P. vulgaris WT cv. OAC RICO) was “inhibits nodulation”; with P. vulgaris nodulation (P. vulgaris WT cv. OAC RICO, listed as GmRIC1) it was “inhibition of nodulation”. The “nodule numbers on overexpression” value with G. max nodulation (G. max nod4 lacking functional NARK) is “nodule numbers were unchanged”.
